Paper PMC9098913, “In vitro reconstitution of Escherichia coli divisome activation” (Nature Communications, 2022)

Experiment: Diffusion coefficient of His-tagged FtsAs and His-SUMO on Tris-NTA membranes (FRAP)
Description: To study colocalization of His-tagged variants of FtsA, 0.5–1 µM of Cy5 labelled His-tagged FtsAs were added to the chamber, incubated for 20 min and washed 6x with reaction buffer. […] To control the density of membrane-bound FtsA, SUVs without and with Tris-NTA lipids were mixed to obtain the respective Tris-NTA concentrations. To perform FRET/FRAP experiments, equimolar concentrations of Cy3 and Cy5 labelled His-tagged FtsAs (total 0.5–1 µM) or His-SUMO-Cys were added to a chamber and treated as above. […] FRAP experiments were performed as described before.
Bleaching the acceptor dye leads to an increase in the donor intensity, which can be used to quantify the Foerster Resonance energy transfer (FRET)[48]. FRET efficiency was quantified with E%=Ipost/Ipost+Ipre⋅100 , where Ipost is the intensity of the […] and Ipre is the […]. […] To extract the contribution of both processes, we adjusted a routine recently published by Gerganova et al.[33]. In short, the code provides the contribution of both modes of recovery by analysing the shape of the fluorescence recovery profile. […] Contribution of diffusion leads to a change of the slope of the outer borders of the bleached region (S4h right). Thus, by measuring the change of the slope of the border recovery, diffusion and simple on/off binding can be distinguished. We developed “FRAPdiff”, a graphical user interface, which uses the original fit routine by David Rutkowski. It can be used directly on.tiff movies with annotated bleach regions as ImageJ ROIs. In addition, we added optional bleach correction, user selectable projection axis (x or y), and optional mirroring of the recovery profiles, if bleaching was not symmetric. The original fit routine for estimating the recovery and diffusion dynamics can be found at https://github.com/davidmrutkowski/1DReflectingDiffusion. FRAPdiff is available at 10.5281/zenodo.6400639[49] under the GPLv3 open-source license.

B1: FtsA R286W-His6: FtsA R286W (1-405) with amphipathic helix replaced by C-terminal His-tag (protein)
chain: MIKATDRKLVVGLEIGTAKVAALVGEVLPDGMVNIIGVGSCPSRGMDKGGVNDLESVVKCVQRAIDQAELMADCQISSVYLALSGKHISCQNEIGMVPISEEEVTQEDVENVVHTAKSVRVRDEHRVLHVIPQEYAIDYQEGIKNPVGLSGVRMQAKVHLITCHNDMAKNIVKAVERCGLKVDQLIFAGLASSYSVLTEDERELGVCVVDIGGGTMDIAVYTGGALRHTKVIPYAGNVVTSDIAYAFGTPPSDAEAIKVRHGCALGSIVGKDESVEVPSVGGRPPWSLQRQTLAEVIEPRYTELLNLVNEEILQLQEKLRQQGVKHHLAAGIVLTGGAAQIEGLAACAQRVFHTQVRIGAPLNITGLTDYAQEPYYSTAVGLLHYGKESHLNGEAEVEKRVTASV
modifications: Cy3 or Cy5 at the N-terminus in the labelled form (sortagging as for native FtsA); left off: TwinStrep-SUMO, N-terminal, cleaved | 5xGlycine tag, N-terminal, kept | His6, C-terminal, kept
- Diffusion Coefficient (0.1% Tris NTA, + FtsZ, mean (n: WT 2, R286W 3)): 0.17 µm2/s
- Diffusion Coefficient (0.1% Tris NTA, + FtsZ, replicate Exp1): 0.12 µm2/s
- Diffusion Coefficient (0.1% Tris NTA, + FtsZ, replicate Exp2): 0.17 µm2/s
- Diffusion Coefficient (0.1% Tris NTA, + FtsZ, replicate Exp3): 0.22 µm2/s
- Diffusion Coefficient (0.1% Tris NTA, without FtsZ, mean (n: WT 2, R286W 3, SUMO 2)): 0.50 µm2/s
- Diffusion Coefficient (0.1% Tris NTA, without FtsZ, replicate Exp1): 0.48 µm2/s
- Diffusion Coefficient (0.1% Tris NTA, without FtsZ, replicate Exp2): 0.53 µm2/s
- Diffusion Coefficient (0.1% Tris NTA, without FtsZ, replicate Exp3): 0.50 µm2/s
- Diffusion Coefficient (0.4% Tris NTA, + FtsZ, mean (n: WT 2, R286W 3)): 0.08 µm2/s
- Diffusion Coefficient (0.4% Tris NTA, + FtsZ, replicate Exp1): 0.12 µm2/s
- Diffusion Coefficient (0.4% Tris NTA, + FtsZ, replicate Exp2): 0.11 µm2/s
- Diffusion Coefficient (0.4% Tris NTA, + FtsZ, replicate Exp3): 0.0041 µm2/s
- Diffusion Coefficient (0.4% Tris NTA, without FtsZ, mean (n: WT 2, R286W 3, SUMO 3)): 0.44 µm2/s
- Diffusion Coefficient (0.4% Tris NTA, without FtsZ, replicate Exp1): 0.31 µm2/s
- Diffusion Coefficient (0.4% Tris NTA, without FtsZ, replicate Exp2): 0.56 µm2/s
- Diffusion Coefficient (0.4% Tris NTA, without FtsZ, replicate Exp3): 0.45 µm2/s
- Diffusion Coefficient (0.6% Tris NTA, + FtsZ, mean (n: WT 5, R286W 5)): 0.0744 µm2/s
- Diffusion Coefficient (0.6% Tris NTA, + FtsZ, replicate Exp1): 0.12 µm2/s
- Diffusion Coefficient (0.6% Tris NTA, + FtsZ, replicate Exp2): 2.02e-8 µm2/s
- Diffusion Coefficient (0.6% Tris NTA, + FtsZ, replicate Exp3): 9.38e-5 µm2/s
- Diffusion Coefficient (0.6% Tris NTA, + FtsZ, replicate Exp4): 0.15 µm2/s
- Diffusion Coefficient (0.6% Tris NTA, + FtsZ, replicate Exp5): 0.11 µm2/s
- Diffusion Coefficient (0.6% Tris NTA, without FtsZ, mean (n: WT 4, R286W 5, SUMO 4)): 0.33 µm2/s
- Diffusion Coefficient (0.6% Tris NTA, without FtsZ, replicate Exp1): 0.43 µm2/s
- Diffusion Coefficient (0.6% Tris NTA, without FtsZ, replicate Exp2): 0.38 µm2/s
- Diffusion Coefficient (0.6% Tris NTA, without FtsZ, replicate Exp3): 0.25 µm2/s
- Diffusion Coefficient (0.6% Tris NTA, without FtsZ, replicate Exp4): 0.30 µm2/s
- Diffusion Coefficient (0.6% Tris NTA, without FtsZ, replicate Exp5): 0.28 µm2/s
- Diffusion Coefficient (0.8% Tris NTA, + FtsZ, mean): 0.04 µm2/s
- Diffusion Coefficient (0.8% Tris NTA, + FtsZ, replicate Exp1): 0.07 µm2/s
- Diffusion Coefficient (0.8% Tris NTA, + FtsZ, replicate Exp2): 0.02 µm2/s
- Diffusion Coefficient (0.8% Tris NTA, + FtsZ, replicate Exp3): 0.0271 µm2/s
- Diffusion Coefficient (0.8% Tris NTA, + FtsZ, replicate Exp4): 0.0336 µm2/s
- Diffusion Coefficient (0.8% Tris NTA, + FtsZ, replicate Exp5): 0.0229 µm2/s
- Diffusion Coefficient (0.8% Tris NTA, + FtsZ, replicate Exp6): 0.06 µm2/s
- Diffusion Coefficient (0.8% Tris NTA, without FtsZ, mean): 0.22 µm2/s
- Diffusion Coefficient (0.8% Tris NTA, without FtsZ, replicate Exp1): 0.17 µm2/s
- Diffusion Coefficient (0.8% Tris NTA, without FtsZ, replicate Exp2): 0.22 µm2/s
- Diffusion Coefficient (0.8% Tris NTA, without FtsZ, replicate Exp3): 0.26 µm2/s
- Diffusion Coefficient (0.8% Tris NTA, without FtsZ, replicate Exp4): 0.17 µm2/s
- Diffusion Coefficient (0.8% Tris NTA, without FtsZ, replicate Exp5): 0.30 µm2/s
- Diffusion Coefficient (0.8% Tris NTA, without FtsZ, replicate Exp6): 0.20 µm2/s
- Diffusion Coefficient (1% Tris NTA, + FtsZ, mean): 0.04 µm2/s
- Diffusion Coefficient (1% Tris NTA, + FtsZ, replicate Exp1): 0.0437 µm2/s
- Diffusion Coefficient (1% Tris NTA, + FtsZ, replicate Exp2): 0.0187 µm2/s
- Diffusion Coefficient (1% Tris NTA, + FtsZ, replicate Exp3): 0.046 µm2/s
- Diffusion Coefficient (1% Tris NTA, + FtsZ, replicate Exp4): 0.0142 µm2/s
- Diffusion Coefficient (1% Tris NTA, + FtsZ, replicate Exp5): 0.03 µm2/s
- Diffusion Coefficient (1% Tris NTA, + FtsZ, replicate Exp6): 0.09 µm2/s
- Diffusion Coefficient (1% Tris NTA, without FtsZ, mean): 0.22 µm2/s
- Diffusion Coefficient (1% Tris NTA, without FtsZ, replicate Exp1): 0.32 µm2/s
- Diffusion Coefficient (1% Tris NTA, without FtsZ, replicate Exp2): 0.13 µm2/s
- Diffusion Coefficient (1% Tris NTA, without FtsZ, replicate Exp3): 0.42 µm2/s
- Diffusion Coefficient (1% Tris NTA, without FtsZ, replicate Exp4): 0.24 µm2/s
- Diffusion Coefficient (1% Tris NTA, without FtsZ, replicate Exp5): 0.09 µm2/s
- Diffusion Coefficient (1% Tris NTA, without FtsZ, replicate Exp6): 0.14 µm2/s
- Diffusion Coefficient (Tris 0.10 %, + FtsZ): 0.17 µm2/s
- Diffusion Coefficient (Tris 0.10 %, without FtsZ): 0.50 µm2/s
- Diffusion Coefficient (Tris 0.40 %, + FtsZ): 0.08 µm2/s
- Diffusion Coefficient (Tris 0.40 %, without FtsZ): 0.44 µm2/s
- Diffusion Coefficient (Tris 0.60 %, + FtsZ): 0.0744 µm2/s
- Diffusion Coefficient (Tris 0.60 %, without FtsZ): 0.33 µm2/s
- Diffusion Coefficient (Tris 0.80 %, + FtsZ): 0.04 µm2/s
- Diffusion Coefficient (Tris 0.80 %, without FtsZ): 0.22 µm2/s
- Diffusion Coefficient (Tris 1.00 %, + FtsZ): 0.04 µm2/s
- Diffusion Coefficient (Tris 1.00 %, without FtsZ): 0.22 µm2/s
- Diffusion Coefficient (Tris 2.00 %, + FtsZ): 0.02 µm2/s
- Diffusion Coefficient (Tris 2.00 %, without FtsZ): 0.035 µm2/s
- Diffusion Coefficient ([…] Tris NTA, + FtsZ, mean (n: WT 2, R286W 3)): 0.14 µm2/s
- Diffusion Coefficient ([…] Tris NTA, + FtsZ, replicate Exp1): 0.34 µm2/s
- Diffusion Coefficient ([…] Tris NTA, + FtsZ, replicate Exp2): 0.000447 µm2/s
- Diffusion Coefficient ([…] Tris NTA, + FtsZ, replicate Exp3): 0.07 µm2/s
- Diffusion Coefficient ([…] Tris NTA, without FtsZ, mean (n: WT 2, R286W 3, SUMO 3)): 0.42 µm2/s
- Diffusion Coefficient ([…] Tris NTA, without FtsZ, replicate Exp1): 0.55 µm2/s
- Diffusion Coefficient ([…] Tris NTA, without FtsZ, replicate Exp2): 0.25 µm2/s
- Diffusion Coefficient ([…] Tris NTA, without FtsZ, replicate Exp3): 0.47 µm2/s
- Diffusion Coefficient ([…] Tris-NTA, + N (FtsNcyto), mean): 4.17E-05 µm2/s
- Diffusion Coefficient ([…] Tris-NTA, + N/Z, Exp. 1): 2.50E-03 µm2/s
- Diffusion Coefficient ([…] Tris-NTA, + N/Z, Exp. 2): 2.00E-05 µm2/s
- Diffusion Coefficient ([…] Tris-NTA, + N/Z, Exp. 3): 1.00E-05 µm2/s
- Diffusion Coefficient ([…] Tris-NTA, + N/Z, mean): 8.43E-04 µm2/s
- Diffusion Coefficient ([…] Tris-NTA, + N, Exp. 1): 7.50E-05 µm2/s
- Diffusion Coefficient ([…] Tris-NTA, + N, Exp. 2): 3.00E-05 µm2/s
- Diffusion Coefficient ([…] Tris-NTA, + N, Exp. 3): 2.00E-05 µm2/s
- Diffusion Coefficient ([…] Tris-NTA, + Z (FtsZ), mean): 0.05 µm2/s
- Diffusion Coefficient ([…] Tris-NTA, + Z, Exp. 1): 0.0229 µm2/s
- Diffusion Coefficient ([…] Tris-NTA, + Z, Exp. 2): 0.04 µm2/s
- Diffusion Coefficient ([…] Tris-NTA, + Z, Exp. 3): 0.08 µm2/s
- Diffusion Coefficient ([…] Tris-NTA, alone, Exp. 1): 0.14 µm2/s
- Diffusion Coefficient ([…] Tris-NTA, alone, Exp. 2): 0.0561 µm2/s
- Diffusion Coefficient ([…] Tris-NTA, alone, Exp. 3): 0.26 µm2/s
- Diffusion Coefficient ([…] Tris-NTA, alone, mean): 0.15 µm2/s
- Diffusion Coefficient (with FtsNcyto, mean ± s.d., p-value 0.01): 8.43 × 10^−4 ± 1.17 × 10^−3 µm^2/s
- Diffusion Coefficient (without FtsNcyto, mean ± s.d., p-value 0.01): 0.05 ± 0.04 µm^2/s
